Test results from doi:10.1101/2023.09.20.558697.
Read-outs that look alike come from different tables or passages of the source.

Columns and labels:
Experiment in all cases: EMSA
RokL6-His6 [1] = target: T1, RokL6-His6 (Streptomyces coelicolor A3(2) M145, UniProt Q9L112 1-399)
T1 sequence: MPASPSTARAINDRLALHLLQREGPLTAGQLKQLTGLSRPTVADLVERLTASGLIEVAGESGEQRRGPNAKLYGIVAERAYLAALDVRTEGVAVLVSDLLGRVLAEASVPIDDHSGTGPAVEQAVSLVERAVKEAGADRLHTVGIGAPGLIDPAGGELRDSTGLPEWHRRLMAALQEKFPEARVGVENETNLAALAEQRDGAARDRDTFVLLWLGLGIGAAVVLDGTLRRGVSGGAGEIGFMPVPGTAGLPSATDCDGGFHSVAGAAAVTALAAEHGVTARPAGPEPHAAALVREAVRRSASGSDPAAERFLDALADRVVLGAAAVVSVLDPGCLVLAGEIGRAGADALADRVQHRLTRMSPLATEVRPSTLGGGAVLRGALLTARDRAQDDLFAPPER

RokL6-His6 [2] = target: T1, RokL6-His6; remark: listed apart in the source
RokL6-His6 [3] = target: T1, RokL6-His6; remark: listed apart in the source

B1: RokL6-BS (dsDNA)
DNA 1: CGCACCGGTAATCCACTATCTATCAGGCAGGCTCCCTGATAGTTTACGCCGCGGATTGAC
DNA 2: GTCAATCCGCGGCGTAAACTATCAGGGAGCCTGCCTGATAGATAGTGGATTACCGGTGCG
binding result (RokL6-His6 [1]): binds

B2: RokL6-M3 (dsDNA)
DNA 1: CGCACCGGTAATCCACTATCGAATTCGCAGGCTCCGGATCCGTTTACGCCGCGGATTGAC
DNA 2: GTCAATCCGCGGCGTAAACGGATCCGGAGCCTGCGAATTCGATAGTGGATTACCGGTGCG
binding result (RokL6-His6 [2]): no binding

B3: hrdB-P (dsDNA)
DNA 1: CGGCCCGCCCGCACCGTCGGCCCATTCCCAAGCCGGTGGTCGGCCCCTGTCCGCCGTGGA
DNA 2: TCCACGGCGGACAGGGGCCGACCACCGGCTTGGGAATGGGCCGACGGTGCGGGCGGGCCG
binding result (RokL6-His6 [3]): no binding
